{"source": "paper PMC4319847", "origin": "cited, not measured here", "key": {"[1]": {"target": "Myc NLS NLS (Homo sapiens) (UniProt P01106)", "sequence (P01106 whole entry, looked up)": "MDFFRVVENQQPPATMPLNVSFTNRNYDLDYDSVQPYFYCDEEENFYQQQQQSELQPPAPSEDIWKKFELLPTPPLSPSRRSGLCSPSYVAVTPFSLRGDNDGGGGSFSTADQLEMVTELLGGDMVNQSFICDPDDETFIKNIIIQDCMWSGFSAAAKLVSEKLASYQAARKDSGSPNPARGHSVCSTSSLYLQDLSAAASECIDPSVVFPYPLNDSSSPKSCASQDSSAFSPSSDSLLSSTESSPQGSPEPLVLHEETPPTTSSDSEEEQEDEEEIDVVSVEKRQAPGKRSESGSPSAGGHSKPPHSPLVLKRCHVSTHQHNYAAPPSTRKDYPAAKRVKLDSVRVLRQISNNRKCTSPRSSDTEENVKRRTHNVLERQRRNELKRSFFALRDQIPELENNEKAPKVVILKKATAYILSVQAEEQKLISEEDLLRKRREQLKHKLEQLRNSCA"}, "[2]": {"target": "SV40 NLS NLS (Simian virus 40) (UniProt P03070)", "sequence (P03070 whole entry, looked up)": "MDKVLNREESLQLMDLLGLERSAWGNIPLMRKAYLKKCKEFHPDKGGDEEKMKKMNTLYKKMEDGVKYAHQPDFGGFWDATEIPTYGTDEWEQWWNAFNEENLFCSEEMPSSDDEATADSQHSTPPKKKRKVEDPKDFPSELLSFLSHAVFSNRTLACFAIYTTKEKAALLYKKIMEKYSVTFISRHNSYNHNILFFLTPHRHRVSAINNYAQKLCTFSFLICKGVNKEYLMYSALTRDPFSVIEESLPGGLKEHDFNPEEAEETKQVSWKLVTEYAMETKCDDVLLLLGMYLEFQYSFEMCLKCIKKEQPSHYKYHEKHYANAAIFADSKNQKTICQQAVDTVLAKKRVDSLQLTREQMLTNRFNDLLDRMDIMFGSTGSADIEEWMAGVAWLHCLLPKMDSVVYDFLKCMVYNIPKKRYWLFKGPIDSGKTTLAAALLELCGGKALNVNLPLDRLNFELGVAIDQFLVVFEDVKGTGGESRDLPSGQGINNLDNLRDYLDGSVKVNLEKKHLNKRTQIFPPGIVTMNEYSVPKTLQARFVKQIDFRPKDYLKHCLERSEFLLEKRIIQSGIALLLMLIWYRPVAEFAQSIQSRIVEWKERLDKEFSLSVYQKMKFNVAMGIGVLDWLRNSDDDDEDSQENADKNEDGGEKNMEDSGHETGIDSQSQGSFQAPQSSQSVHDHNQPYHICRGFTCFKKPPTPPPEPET"}}, "data": [{"substance": "yeast importin-α 89-530 (from UniProt Q02821)", "values": [{"measurement": "Kd", "setting": "[1]", "result": 6, "unit": "nM"}, {"measurement": "Kd", "setting": "[2]", "result": 9, "unit": "nM"}]}]}
